Some results are limits rather than exact numbers.

For assay [1], the target named is T1, human FcγRIIA (NM_021642) expressed on cells (human, UniProt P12318 36-317).
T1 construct: Transiently expressed on Expi293F cells; also used here for FcγRIIA on human macrophages in the ADCP assay; also called Expi293F FcγRIIA; HEK293F cells expressing FcγRIIA
T1 sequence: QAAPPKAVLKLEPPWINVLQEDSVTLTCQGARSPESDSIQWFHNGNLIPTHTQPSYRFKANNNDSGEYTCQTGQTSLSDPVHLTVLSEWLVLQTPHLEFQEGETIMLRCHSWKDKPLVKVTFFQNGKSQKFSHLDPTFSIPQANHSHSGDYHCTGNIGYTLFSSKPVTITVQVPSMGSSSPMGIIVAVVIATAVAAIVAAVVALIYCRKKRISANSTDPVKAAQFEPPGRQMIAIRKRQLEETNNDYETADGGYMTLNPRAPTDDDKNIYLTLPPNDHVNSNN
Briefly: flow cytometry; Expi293F cells transfected with FcγRIIA. As for the experimental part: (§1) Plasmids expressing cDNAs encoding human FcγRI (NM_000566) (SEQ ID NO: 44), FcγRIIA (NM_021642) (SEQ ID NO: 2), FcγRIIB (NM_004001) (SEQ ID NO: 3), and FcγRIIIA (NM_000569) (SEQ ID NO: 45) (Origene) were transiently transfected into Expi293F cells by ExpiFectamine293 transfection kit (Life Technologies). Flow cytometry assays were performed 48 h after transfection.
(§2) 2×10⁵ cells per well were seeded in 96-well plate and blocked in BSA Stain Buffer (BD Biosciences, San Jose, USA) for 30 min at 4° C. Cells were incubated with test mAbtyrin on ice for 1.5 h at 4° C. After being washed twice with BSA stain buffer, the cells were incubated with R-PE labeled anti-human or anti-mouse IgG secondary antibody (Jackson Immunoresearch Laboratories) for 45 min at 4° C. The cells were washed twice in stain buffer and then resuspended in 150 μL of Stain Buffer containing 1:200 diluted DRAQ7 live/dead stain (Cell Signaling Technology, Danvers, USA). PE and DRAQ7 signals of the stained cells were detected by Miltenyi MACSQuant flow cytometer (Miltenyi Biotec, Auburn, USA) using B2 and B4 channel respectively. Live cells were gated on DRAQ7 exclusion and the geometric mean fluorescence signals were determined for at least 10,000 live events collected. FlowJo software (Tree Star) was used for analysis. Data was plotted as the logarithm of antibody concentration versus mean fluorescence signals. Nonlinear regression analysis was performed by GraphPad Prism 6 (GraphPad Software, Inc.) and EC₅₀ values were calculated.

Assay [2] addresses T2, human FcγRIIB (NM_004001) expressed on cells (human, UniProt P31994 43-310).
T2 construct: Transiently expressed on Expi293F cells; also called Expi293F FcγRIIB; HEK293F cells expressing FcγRIIB
T2 sequence: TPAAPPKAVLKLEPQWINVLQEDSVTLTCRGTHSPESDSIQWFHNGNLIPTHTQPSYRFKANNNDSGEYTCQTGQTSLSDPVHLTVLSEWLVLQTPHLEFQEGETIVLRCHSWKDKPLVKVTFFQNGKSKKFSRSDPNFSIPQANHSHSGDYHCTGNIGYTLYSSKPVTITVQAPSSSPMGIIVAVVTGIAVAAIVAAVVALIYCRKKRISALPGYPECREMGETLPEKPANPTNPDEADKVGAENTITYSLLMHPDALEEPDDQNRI
Nature of the assay: flow cytometry; Raji cells (express predominantly FcγRIIB).

Assay [3] concerns the target T2, human FcγRIIB (NM_004001) expressed on …. Nature of the assay: flow cytometry; Expi293F cells transfected with FcγRIIB. The method, then: as §1, §2
For assay [4], the target named is T3, human FcγRIIIA (NM_000569) expressed on cells (human, UniProt P08637 17-254).
T3 construct: Transiently expressed on Expi293F cells; also used here for FcγRIIIA on the engineered effector cells of the ADCC reporter bioassay (Promega); also called FcγIIIA
Briefly: flow cytometry; Expi293F cells transfected with FcγRIIIA. The method, then: as §1, §2

The target in another assay is T4, FcγRIIA protein (human, UniProt P12318 36-217, biotinylated (SureLINK Biotin Kit) in the ELISA of Example 1).
T4 construct: Soluble/recombinant antigen used in ELISA; also called bt-FcγRIIA; recombinant FcγRIIA protein
T4 sequence: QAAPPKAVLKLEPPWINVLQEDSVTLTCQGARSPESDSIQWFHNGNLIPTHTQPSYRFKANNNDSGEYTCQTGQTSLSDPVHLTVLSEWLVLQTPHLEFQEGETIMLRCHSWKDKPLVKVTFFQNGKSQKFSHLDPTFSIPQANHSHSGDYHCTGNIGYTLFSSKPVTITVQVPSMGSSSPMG
Briefly: ELISA; FcγRIIA protein coated on plate, anti-human IgG-HRP detection. As for the experimental part:
Effect of the mAbtyrins on T cell activation was evaluated. Briefly, recombinant FcγRIIB or FcγRIIA protein was coated on the plate to provide the crosslinking activity. For T cell activation assay, 100 μL of 30 ng/mL anti-CD3 antibody (OKT3) and 1 μg/mL FcγRIIB or FcγRIIA protein in DPBS were coated in U-bottomed 96-well tissue culture plate overnight. CD4 positive T cells were isolated from PBMC by negative selection. OX40 expression was induced by culturing the isolated T cells in the presence of 1 μg/mL PHA overnight. On the assay day, the coating solution in the plate were aspirated and 150 μL RPMI media was added to block the plate. The cultured T cells were washed three times by RPMI culture media and between 25,000 to 50,000 CD4 positive T cells were seeded in each well in the assay plate. Test mAbtyrins were added to the cells and the plate was incubated for 3 days. T cell activation was assessed by the induction of IFNγ or TNFα production, which was quantitated by human IFNγ or TNFα ELISA detection kit (Biolegend). Prior to T cell activation assay, the binding affinity of mAbtyrins to immobilized FcγRIIB or FcγRIIA protein were evaluated by an ELISA assay. […] The binding of mAbtyrins to immobilized FcγRIIB or FcγRIIA protein were detected by HRP-conjugated anti-Human IgG(γ) secondary antibody and quantitated by ELISA assay using TMB substrate.

T3 sequence (P08637 17-254 limits assumed): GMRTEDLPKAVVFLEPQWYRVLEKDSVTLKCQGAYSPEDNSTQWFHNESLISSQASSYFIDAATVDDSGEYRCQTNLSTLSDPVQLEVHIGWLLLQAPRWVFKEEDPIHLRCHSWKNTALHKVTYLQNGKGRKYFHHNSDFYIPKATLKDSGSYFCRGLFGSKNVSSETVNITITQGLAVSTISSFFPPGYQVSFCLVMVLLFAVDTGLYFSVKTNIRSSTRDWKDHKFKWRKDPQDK

B1: OX40SF2IgG2sigma_R2BS29_HC-C (bispecific antibody)
heavy: QVQLVQSGAEVKKPGSSVKVSCKASGYTFKDYTMHWVRQAPGQGLEWIGGIYPNNGGSTYNQNFKDRVTLTADKSTSTAYMELSSLRSEDTAVYYCARMGYHGPHLDFDVWGQGTTVTVSSASTKGPSVFPLAPCSRSTSESTAALGCLVKDYFPEPVTVSWNSGALTSGVHTFPAVLQSSGLYSLSSVVTVPSSNFGTQTYTCNVDHKPSNTKVDKTVERKCCVECPPCPAPPAAASSVFLFPPKPKDTLMISRTPEVTCVVVDVSAEDPEVQFNWYVDGVEVHNAKTKPREEQFNSTFRVVSVLTVLHQDWLNGKEYKCKVSNKGLPSSIEKTISKTKGQPREPQVYTLPPSREEMTKNQVSLTCLVKGFYPSDIAVEWESNGQPENNYKTTPPMLDSDGSFFLYSKLTVDKSRWQQGNVFSCSVMHEALHNHYTQKSLSLSPGKGGGGGSGGGGSGGGGSGGGGSLPAPKNLVVSRVTEDSARLSWTAPDAAFDSFPIYYWEYRVGGEAIVLTVPGSERSYDLTGLKPGTEYFVYINGVKGGEESRPLSAIFTT
light: DIQMTQSPSSLSASVGDRVTITCKASQDVGAAVAWYQQKPGKAPKLLIYWASTRHTGVPSRFSGSGSGTDFTLTISSLQPEDFATYYCQQYINYPLTFGGGTKVEIKRTVAAPSVFIFPPSDEQLKSGTASVVCLLNNFYPREAKVQWKVDNALQSGNSQESVTEQDSKDSTYSLSSTLTLSKADYEKHKVYACEVTHQGLSSPVTKSFNRGEC
notes: mAbtyrin: anti-OX40 antibody OX40SF2, effector silent IgG2sigma, with linker and R2BS29 FN3 domain at the C-terminus of the heavy chain; also called mAbtyrin
In the case of B1, the EC50 is 0.066 µg/mL in assay [1], 1.52 µg/mL in assay [3] and above 10 µg/mL in assay [4]. Moreover, in assay [2], the “fold binding signal over OX40SF2IgG2sigma at 10 µg/mL” value was at least 6 fold.

B2: OX40SF2IgG1 (antibody)
heavy: not shown
light: DIQMTQSPSSLSASVGDRVTITCKASQDVGAAVAWYQQKPGKAPKLLIYWASTRHTGVPSRFSGSGSGTDFTLTISSLQPEDFATYYCQQYINYPLTFGGGTKVEIKRTVAAPSVFIFPPSDEQLKSGTASVVCLLNNFYPREAKVQWKVDNALQSGNSQESVTEQDSKDSTYSLSSTLTLSKADYEKHKVYACEVTHQGLSSPVTKSFNRGEC
notes: Anti-OX40 antibody, wild-type IgG1; control without FN3 domain
Consider B2, for which the figures for the EC50 in assay [1] and in assay [4] were 3.3 µg/mL and 0.339 µg/mL, respectively.

B3: OX40SF2IgG2sigma (antibody)
heavy: QVQLVQSGAEVKKPGSSVKVSCKASGYTFKDYTMHWVRQAPGQGLEWIGGIYPNNGGSTYNQNFKDRVTLTADKSTSTAYMELSSLRSEDTAVYYCARMGYHGPHLDFDVWGQGTTVTVSSASTKGPSVFPLAPCSRSTSESTAALGCLVKDYFPEPVTVSWNSGALTSGVHTFPAVLQSSGLYSLSSVVTVPSSNFGTQTYTCNVDHKPSNTKVDKTVERKCCVECPPCPAPPAAASSVFLFPPKPKDTLMISRTPEVTCVVVDVSAEDPEVQFNWYVDGVEVHNAKTKPREEQFNSTFRVVSVLTVLHQDWLNGKEYKCKVSNKGLPSSIEKTISKTKGQPREPQVYTLPPSREEMTKNQVSLTCLVKGFYPSDIAVEWESNGQPENNYKTTPPMLDSDGSFFLYSKLTVDKSRWQQGNVFSCSVMHEALHNHYTQKSLSLSPGK
light: DIQMTQSPSSLSASVGDRVTITCKASQDVGAAVAWYQQKPGKAPKLLIYWASTRHTGVPSRFSGSGSGTDFTLTISSLQPEDFATYYCQQYINYPLTFGGGTKVEIKRTVAAPSVFIFPPSDEQLKSGTASVVCLLNNFYPREAKVQWKVDNALQSGNSQESVTEQDSKDSTYSLSSTLTLSKADYEKHKVYACEVTHQGLSSPVTKSFNRGEC
notes: Anti-OX40 antibody, IgG2 sigma isotype (effector silent Fc: V234A, G237A, P238S, H268A, V309L, A330S, P331S against wild type IgG2); control without FN3 domain; also called parental antibody; parental OX40 antibody
On to B3, for which, in the assay with FcγRIIA protein, the binding result is on record as “no binding”.
